The target in assay [1] is Murine GP130 ectodomain with C-terminal biotin acceptor peptide, biotinylated (murine) (UniProt Q00560). The assay is described as follows: SPR. On the technique in general: In SPR one partner is held on a chip, and binding of the other changes the refractive index at the surface.
For assay [2], the target named is Murine IL-27Rα ectodomain (amino acids 28-224), N-terminally biotinylated (murine) (UniProt O70394). Nature of the assay: SPR.

Kd data for 1 substance are collected here from publication doi:10.1101/2022.02.18.481027.

What is called Kd is a measure of binding affinity in units of concentration. High values mean lower affinity, low ones higher affinity.

Sequence of Murine GP130 ectodomain with C-terminal biotin acceptor peptide, biotinylated (murine) (Q00560 23-319): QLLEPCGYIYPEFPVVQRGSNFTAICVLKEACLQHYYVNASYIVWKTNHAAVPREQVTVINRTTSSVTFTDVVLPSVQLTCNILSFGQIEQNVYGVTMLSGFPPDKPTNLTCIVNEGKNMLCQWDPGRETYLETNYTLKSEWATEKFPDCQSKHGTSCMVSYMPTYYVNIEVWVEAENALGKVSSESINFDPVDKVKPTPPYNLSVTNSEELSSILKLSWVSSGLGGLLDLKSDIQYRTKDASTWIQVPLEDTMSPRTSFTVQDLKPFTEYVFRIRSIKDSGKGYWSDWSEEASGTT
Sequence of Murine IL-27Rα ectodomain (amino acids 28-224), N-terminally biotinylated (murine) (O70394 28-224): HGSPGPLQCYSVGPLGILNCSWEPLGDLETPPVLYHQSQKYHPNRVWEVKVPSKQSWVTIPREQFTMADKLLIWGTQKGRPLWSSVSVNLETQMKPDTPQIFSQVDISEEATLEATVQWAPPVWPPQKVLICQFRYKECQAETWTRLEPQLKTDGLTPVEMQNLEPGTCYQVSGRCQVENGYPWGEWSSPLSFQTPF

Consider “Murine IL-27, linker-connected single-chain variant (p28+EBI3) (ligand)”, for which the Kd in assay [1] was found to be 3.1 nM; in assay [2] it was 0.29 nM.
